Source: the supplement of paper PMC9112550, “Optimization of the antimicrobial peptide Bac7 by deep mutational scanning” (BMC Biology, 2022)

System: Escherichia coli TOP10
Experiment: shrunken log2 fold change of peptide-encoding DNA abundance (4.5 h post-induction vs induction); higher = less antimicrobial activity (less host growth inhibition)
Conditions: time post-induction: 4.5 h; library: site-saturation at positions 5, 18, 19, 20
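Also: peptides expressed intracellularly from a pBAD plasmid library in pooled LB shake-flask culture, induced with 0.3% L-arabinose, DNA abundance read by NGS, three biological replicates, DESeq2 with apeglm shrinkage.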

In order of rising “shrunken log2 fold change” value:
1. RRIRDRPPRLPRPRPRPFNFPRP  -0.703
2. RRIRDRPPRLPRPRPRPGYCPRP  -0.658
3. RRIRDRPPRLPRPRPRPCHYPRP  -0.639
4. RRIRDRPPRLPRPRPRPHTWPRP  -0.491
5. RRIRDRPPRLPRPRPRPCCPPRP  -0.449
6. RRIRDRPPRLPRPRPRPDRYPRP  -0.395
7. RRIRDRPPRLPRPRPRPFILPRP  -0.293
8. RRIRDRPPRLPRPRPRPHSMPRP  -0.293
9. RRIRDRPPRLPRPRPRPCPMPRP  -0.292
10. RRIRDRPPRLPRPRPRPCDNPRP  -0.283
11. RRIRDRPPRLPRPRPRPIDAPRP  -0.264
12. RRIRDRPPRLPRPRPRPCMSPRP  -0.256
13. RRIRDRPPRLPRPRPRPDSPPRP  -0.248
14. RRIRDRPPRLPRPRPRPHCMPRP  -0.24
15. RRIRDRPPRLPRPRPRPCECPRP  -0.201
16. RRIRDRPPRLPRPRPRPCYMPRP  -0.192
17. RRIRDRPPRLPRPRPRPFTEPRP  -0.165
18. RRIRDRPPRLPRPRPRPFSRPRP  -0.164
19. RRIRDRPPRLPRPRPRPFPFPRP  -0.163
20. RRIRDRPPRLPRPRPRPHTYPRP  -0.163
21. RRIRDRPPRLPRPRPRPCFRPRP  -0.157
22. RRIRDRPPRLPRPRPRPHGNPRP  -0.149
23. RRIRDRPPRLPRPRPRPGIQPRP  -0.148
24. RRIRDRPPRLPRPRPRPIENPRP  -0.144
25. RRIRDRPPRLPRPRPRPEHFPRP  -0.138
26. RRIRDRPPRLPRPRPRPHWSPRP  -0.132
27. RRIRDRPPRLPRPRPRPFKFPRP  -0.122
28. RRIRDRPPRLPRPRPRPFDPPRP  -0.119
29. RRIRDRPPRLPRPRPRPCIIPRP  -0.0943
30. RRIRDRPPRLPRPRPRPFVPPRP  -0.0913
31. RRIRDRPPRLPRPRPRPCTKPRP  -0.0891
32. RRIRDRPPRLPRPRPRPHVPPRP  -0.076
33. RRIRDRPPRLPRPRPRPDNNPRP  -0.0748
34. RRIRDRPPRLPRPRPRPGPSPRP  -0.0742
35. RRIRDRPPRLPRPRPRPCYSPRP  -0.0729
36. RRIRDRPPRLPRPRPRPGTCPRP  -0.0724
37. RRIRDRPPRLPRPRPRPDRDPRP  -0.0722
38. RRIRDRPPRLPRPRPRPGGNPRP  -0.0716
39. RRIRDRPPRLPRPRPRPCNEPRP  -0.0633
40. RRIRDRPPRLPRPRPRPESFPRP  -0.0579
41. RRIRDRPPRLPRPRPRPHCTPRP  -0.0502
42. RRIRDRPPRLPRPRPRPDLWPRP  -0.0295
43. RRIRDRPPRLPRPRPRPDSQPRP  -0.0289
44. RRIRDRPPRLPRPRPRPHFWPRP  -0.0278
45. RRIRDRPPRLPRPRPRPDTFPRP  -0.0268
46. RRIRDRPPRLPRPRPRPFPSPRP  -0.0268
47. RRIRDRPPRLPRPRPRPCDAPRP  -0.0239
48. RRIRDRPPRLPRPRPRPCDVPRP  -0.0231
49. RRIRDRPPRLPRPRPRPDGYPRP  -0.0204
50. RRIRDRPPRLPRPRPRPCLDPRP  -0.0178
51. RRIRDRPPRLPRPRPRPEYRPRP  -0.0165
52. RRIRDRPPRLPRPRPRPDCPPRP  -0.0117
53. RRIRDRPPRLPRPRPRPETVPRP  -0.0114
54. RRIRDRPPRLPRPRPRPDQFPRP  -0.00947
55. RRIRDRPPRLPRPRPRPDSRPRP  -0.00898
56. RRIRDRPPRLPRPRPRPHKKPRP  -0.00887
57. RRIRDRPPRLPRPRPRPGMKPRP  -0.00884
58. RRIRDRPPRLPRPRPRPDHAPRP  -0.00822
59. RRIRDRPPRLPRPRPRPCTTPRP  -0.00176
60. RRIRDRPPRLPRPRPRPCHWPRP  -0.00151
61. RRIRDRPPRLPRPRPRPESPPRP  0.000713
62. RRIRDRPPRLPRPRPRPHCFPRP  0.00117
63. RRIRDRPPRLPRPRPRPEELPRP  0.00153
64. RRIRDRPPRLPRPRPRPHMRPRP  0.00207
65. RRIRDRPPRLPRPRPRPCYEPRP  0.00345
66. RRIRDRPPRLPRPRPRPERYPRP  0.00592
67. RRIRDRPPRLPRPRPRPFVSPRP  0.00609
68. RRIRDRPPRLPRPRPRPCTAPRP  0.00714
69. RRIRDRPPRLPRPRPRPFMVPRP  0.00751
70. RRIRDRPPRLPRPRPRPGDHPRP  0.00849
71. RRIRDRPPRLPRPRPRPDKRPRP  0.00902
72. RRIRDRPPRLPRPRPRPETMPRP  0.0179
73. RRIRDRPPRLPRPRPRPFDMPRP  0.0213
74. RRIRDRPPRLPRPRPRPHCKPRP  0.0223
75. RRIRDRPPRLPRPRPRPERKPRP  0.0234
76. RRIRDRPPRLPRPRPRPHEVPRP  0.0253
77. RRIRDRPPRLPRPRPRPFQTPRP  0.0255
78. RRIRDRPPRLPRPRPRPHGKPRP  0.0283
79. RRIRDRPPRLPRPRPRPDIYPRP  0.0286
80. RRIRDRPPRLPRPRPRPGFHPRP  0.0294
81. RRIRDRPPRLPRPRPRPHMWPRP  0.0299
82. RRIRDRPPRLPRPRPRPIDCPRP  0.0306
83. RRIRDRPPRLPRPRPRPHWFPRP  0.0318
84. RRIRDRPPRLPRPRPRPHEDPRP  0.0325
85. RRIRDRPPRLPRPRPRPHRLPRP  0.033
86. RRIRDRPPRLPRPRPRPFQSPRP  0.0407
87. RRIRDRPPRLPRPRPRPCTQPRP  0.0408
88. RRIRDRPPRLPRPRPRPCDPPRP  0.041
89. RRIRDRPPRLPRPRPRPHYDPRP  0.0428
90. RRIRDRPPRLPRPRPRPDSCPRP  0.0444
91. RRIRDRPPRLPRPRPRPDSLPRP  0.0462
92. RRIRDRPPRLPRPRPRPIAKPRP  0.0483
93. RRIRDRPPRLPRPRPRPIEQPRP  0.0525
94. RRIRDRPPRLPRPRPRPFCRPRP  0.0534
95. RRIRDRPPRLPRPRPRPFFPPRP  0.0715
96. RRIRDRPPRLPRPRPRPDSIPRP  0.0726
97. RRIRDRPPRLPRPRPRPGEEPRP  0.0844
98. RRIRDRPPRLPRPRPRPFIEPRP  0.0849
99. RRIRDRPPRLPRPRPRPGDKPRP  0.088
100. RRIRDRPPRLPRPRPRPHMPPRP  0.0902
101. RRIRDRPPRLPRPRPRPGHHPRP  0.0913
102. RRIRDRPPRLPRPRPRPDNLPRP  0.0916
103. RRIRDRPPRLPRPRPRPDSDPRP  0.0999
104. RRIRDRPPRLPRPRPRPCVEPRP  0.111
105. RRIRDRPPRLPRPRPRPGTRPRP  0.118
106. RRIRDRPPRLPRPRPRPEAFPRP  0.119
107. RRIRDRPPRLPRPRPRPIDFPRP  0.132
108. RRIRDRPPRLPRPRPRPEVMPRP  0.152
109. RRIRDRPPRLPRPRPRPHMMPRP  0.158
110. RRIRDRPPRLPRPRPRPGRVPRP  0.166
111. RRIRDRPPRLPRPRPRPCMHPRP  0.175
112. RRIRDRPPRLPRPRPRPIEAPRP  0.184
113. RRIRDRPPRLPRPRPRPGRHPRP  0.186
114. RRIRDRPPRLPRPRPRPGQVPRP  0.203
115. RRIRDRPPRLPRPRPRPHGSPRP  0.208
116. RRIRDRPPRLPRPRPRPEHTPRP  0.225
117. RRIRDRPPRLPRPRPRPDKIPRP  0.231
118. RRIRDRPPRLPRPRPRPGYWPRP  0.242
119. RRIRDRPPRLPRPRPRPCSTPRP  0.248
120. RRIRDRPPRLPRPRPRPCWWPRP  0.249
121. RRIRDRPPRLPRPRPRPGQGPRP  0.257
122. RRIRDRPPRLPRPRPRPCLAPRP  0.291
123. RRIRDRPPRLPRPRPRPEVSPRP  0.3
124. RRIRDRPPRLPRPRPRPDPAPRP  0.304
125. RRIRDRPPRLPRPRPRPDLYPRP  0.309
126. RRIRDRPPRLPRPRPRPGRFPRP  0.315
127. RRIRDRPPRLPRPRPRPGFFPRP  0.345
128. RRIRDRPPRLPRPRPRPGVCPRP  0.358
129. RRIRDRPPRLPRPRPRPENAPRP  0.37
130. RRIRDRPPRLPRPRPRPEQQPRP  0.374
131. RRIRDRPPRLPRPRPRPHPPPRP  0.402
132. RRIRDRPPRLPRPRPRPDTQPRP  0.419
133. RRIRDRPPRLPRPRPRPIFEPRP  0.419
134. RRIRDRPPRLPRPRPRPFCWPRP  0.445
135. RRIRDRPPRLPRPRPRPEPEPRP  0.579
136. RRIRDRPPRLPRPRPRPGAPPRP  0.598
137. RRIRDRPPRLPRPRPRPEACPRP  0.644
138. RRIRDRPPRLPRPRPRPEMMPRP  0.71
139. RRIRDRPPRLPRPRPRPEFGPRP  0.914
140. RRIRDRPPRLPRPRPRPGQDPRP  0.945
141. RRIRDRPPRLPRPRPRPHATPRP  0.985
142. RRIRDRPPRLPRPRPRPGCWPRP  1.03
143. RRIRDRPPRLPRPRPRPELNPRP  1.04
144. RRIRDRPPRLPRPRPRPECMPRP  1.07
145. RRIRDRPPRLPRPRPRPDDWPRP  1.08
146. RRIRDRPPRLPRPRPRPDARPRP  1.31
147. RRIRDRPPRLPRPRPRPELSPRP  1.55
148. RRIRDRPPRLPRPRPRPECAPRP  1.58
149. RRIRDRPPRLPRPRPRPFAAPRP  1.62
150. RRIRDRPPRLPRPRPRPEEPPRP  2.06
